Results as given in patent US20140087995A1 (published 2014).
Numbered stars: 1 amine (or outer) side, 2 acyl side, 3 side chain; on linkers, the order of the positions; unused ones are H or OH. Bridge positions count the residues as written; N and C are the ends. Side chains are listed from the residue outwards. Ends that are not written are not given here. * marks the point of attachment. C20 diacid = O=C(O)CCCCCCCCCCCCCCCCCCC(=O)*; γGlu = O=C(O)[C@H](CCC(=O)[*:2])N[*:1]

T1: human amylin 3(a) receptor (human calcitonin receptor plus RAMP-3) (human, UniProt P30988 25-474; O60896 24-148, limits assumed)
T1 sequence (looked up) 1: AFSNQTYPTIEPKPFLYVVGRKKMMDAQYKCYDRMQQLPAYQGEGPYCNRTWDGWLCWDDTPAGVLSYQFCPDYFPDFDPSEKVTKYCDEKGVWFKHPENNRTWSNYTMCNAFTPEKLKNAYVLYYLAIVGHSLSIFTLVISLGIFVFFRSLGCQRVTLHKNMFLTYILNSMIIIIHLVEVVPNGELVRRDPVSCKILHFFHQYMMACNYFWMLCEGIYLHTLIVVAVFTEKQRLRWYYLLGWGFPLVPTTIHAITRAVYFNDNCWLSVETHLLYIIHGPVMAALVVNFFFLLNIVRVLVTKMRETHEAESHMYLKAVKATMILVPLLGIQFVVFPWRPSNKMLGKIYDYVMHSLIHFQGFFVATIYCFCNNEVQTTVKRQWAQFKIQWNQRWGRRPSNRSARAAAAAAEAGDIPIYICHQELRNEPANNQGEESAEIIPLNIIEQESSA
T1 sequence (looked up) 2: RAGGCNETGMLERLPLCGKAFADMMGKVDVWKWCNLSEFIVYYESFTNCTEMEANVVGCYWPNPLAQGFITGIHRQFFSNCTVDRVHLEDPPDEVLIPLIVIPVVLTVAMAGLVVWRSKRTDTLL

T2: human calcitonin receptor (human, UniProt P30988 25-474)
T2 sequence (looked up): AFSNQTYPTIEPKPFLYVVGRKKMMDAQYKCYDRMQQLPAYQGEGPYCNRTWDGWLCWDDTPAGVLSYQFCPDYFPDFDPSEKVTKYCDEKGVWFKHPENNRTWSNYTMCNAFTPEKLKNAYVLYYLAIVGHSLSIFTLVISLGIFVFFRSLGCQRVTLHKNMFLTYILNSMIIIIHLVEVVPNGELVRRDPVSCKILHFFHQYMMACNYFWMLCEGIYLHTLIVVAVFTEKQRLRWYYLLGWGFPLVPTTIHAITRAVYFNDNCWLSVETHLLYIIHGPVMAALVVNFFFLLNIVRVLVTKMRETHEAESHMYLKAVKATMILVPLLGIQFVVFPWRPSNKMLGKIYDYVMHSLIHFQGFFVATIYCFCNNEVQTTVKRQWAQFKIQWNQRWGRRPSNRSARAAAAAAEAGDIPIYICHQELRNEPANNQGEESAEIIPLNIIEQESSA

B1: N^ε1-[(4S)-4-carboxy-4-[[(4S)-4-carboxy-4-(19-carboxynonadecanoylamino)butanoyl]amino]butanoyl]-[Glu14,Arg17,Pro21,Pro27,His34]-h-amylin (peptide)
peptide: K([γGlu-γGlu-C20 diacid])CNTATCATQRLAEFLRHSSPNFGAIPSSTNVGHNTY-NH2
modifications: disulfide 2-7; N-terminus assumed
SMILES: CC[C@H](C)[C@H](NC(=O)[C@H](C)NC(=O)CNC(=O)[C@H](Cc1ccccc1)NC(=O)[C@H](CC(N)=O)NC(=O)[C@@H]1CCCN1C(=O)[C@H](CO)NC(=O)[C@H](CO)NC(=O)[C@H](Cc1c[nH]cn1)NC(=O)[C@H](CCCNC(=N)N)NC(=O)[C@H](CC(C)C)NC(=O)[C@H](Cc1ccccc1)NC(=O)[C@H](CCC(=O)O)NC(=O)[C@H](C)NC(=O)[C@H](CC(C)C)NC(=O)[C@H](CCCNC(=N)N)NC(=O)[C@H](CCC(N)=O)NC(=O)[C@@H](NC(=O)[C@H](C)NC(=O)[C@@H]1CSSC[C@H](NC(=O)[C@@H](N)CCCCNC(=O)CC[C@H](NC(=O)CC[C@H](NC(=O)CCCCCCCCCCCCCCCCCCC(=O)O)C(=O)O)C(=O)O)C(=O)N[C@@H](CC(N)=O)C(=O)N[C@@H]([C@@H](C)O)C(=O)N[C@@H](C)C(=O)N[C@@H]([C@@H](C)O)C(=O)N1)[C@@H](C)O)C(=O)N1CCC[C@H]1C(=O)N[C@@H](CO)C(=O)N[C@@H](CO)C(=O)N[C@H](C(=O)N[C@@H](CC(N)=O)C(=O)N[C@H](C(=O)NCC(=O)N[C@@H](Cc1c[nH]cn1)C(=O)N[C@@H](CC(N)=O)C(=O)N[C@H](C(=O)N[C@@H](Cc1ccc(O)cc1)C(N)=O)[C@@H](C)O)C(C)C)[C@@H](C)O
notes: also called compound 87
B2: N{Alpha-1}-[(4S)-4-carboxy-4-(19-carboxynonadecanoylamino)butanoyl]-[Glu14,Arg17,Pro21,Pro27,Lys34]-h-amylin (peptide)
peptide: {C20 diacid-γGlu}-KCNTATCATQRLAEFLRHSSPNFGAIPSSTNVGKNTY-NH2
modifications: disulfide 2-7
SMILES: CC[C@H](C)[C@H](NC(=O)[C@H](C)NC(=O)CNC(=O)[C@H](Cc1ccccc1)NC(=O)[C@H](CC(N)=O)NC(=O)[C@@H]1CCCN1C(=O)[C@H](CO)NC(=O)[C@H](CO)NC(=O)[C@H](Cc1c[nH]cn1)NC(=O)[C@H](CCCNC(=N)N)NC(=O)[C@H](CC(C)C)NC(=O)[C@H](Cc1ccccc1)NC(=O)[C@H](CCC(=O)O)NC(=O)[C@H](C)NC(=O)[C@H](CC(C)C)NC(=O)[C@H](CCCNC(=N)N)NC(=O)[C@H](CCC(N)=O)NC(=O)[C@@H](NC(=O)[C@H](C)NC(=O)[C@@H]1CSSC[C@H](NC(=O)[C@H](CCCCN)NC(=O)CC[C@H](NC(=O)CCCCCCCCCCCCCCCCCCC(=O)O)C(=O)O)C(=O)N[C@@H](CC(N)=O)C(=O)N[C@@H]([C@@H](C)O)C(=O)N[C@@H](C)C(=O)N[C@@H]([C@@H](C)O)C(=O)N1)[C@@H](C)O)C(=O)N1CCC[C@H]1C(=O)N[C@@H](CO)C(=O)N[C@@H](CO)C(=O)N[C@H](C(=O)N[C@@H](CC(N)=O)C(=O)N[C@H](C(=O)NCC(=O)N[C@@H](CCCCN)C(=O)N[C@@H](CC(N)=O)C(=O)N[C@H](C(=O)N[C@@H](Cc1ccc(O)cc1)C(N)=O)[C@@H](C)O)C(C)C)[C@@H](C)O
notes: also called compound 36
B3: N^ε1-[(4S)-4-carboxy-4-[[(4S)-4-carboxy-4-(19-carboxynonadecanoylamino)butanoyl]amino]butanoyl]-[Glu14,Arg17,Pro21,Pro27,Pro37]-h-amylin (peptide)
peptide: K([γGlu-γGlu-C20 diacid])CNTATCATQRLAEFLRHSSPNFGAIPSSTNVGSNTP-NH2
modifications: disulfide 2-7 (inferred)
notes: also called compound 13
B4: N^ε1-[(4S)-4-carboxy-4-[[(4S)-4-carboxy-4-(19-carboxynonadecanoylamino)butanoyl]amino]butanoyl]-[Glu14,Arg17,Pro21,Pro27,Pro34,Arg35]-h-amylin (peptide)
peptide: K([γGlu-γGlu-C20 diacid])CNTATCATQRLAEFLRHSSPNFGAIPSSTNVGPRTY-NH2
modifications: disulfide 2-7; N-terminus assumed
SMILES: CC[C@H](C)[C@H](NC(=O)[C@H](C)NC(=O)CNC(=O)[C@H](Cc1ccccc1)NC(=O)[C@H](CC(N)=O)NC(=O)[C@@H]1CCCN1C(=O)[C@H](CO)NC(=O)[C@H](CO)NC(=O)[C@H](Cc1c[nH]cn1)NC(=O)[C@H](CCCNC(=N)N)NC(=O)[C@H](CC(C)C)NC(=O)[C@H](Cc1ccccc1)NC(=O)[C@H](CCC(=O)O)NC(=O)[C@H](C)NC(=O)[C@H](CC(C)C)NC(=O)[C@H](CCCNC(=N)N)NC(=O)[C@H](CCC(N)=O)NC(=O)[C@@H](NC(=O)[C@H](C)NC(=O)[C@@H]1CSSC[C@H](NC(=O)[C@@H](N)CCCCNC(=O)CC[C@H](NC(=O)CC[C@H](NC(=O)CCCCCCCCCCCCCCCCCCC(=O)O)C(=O)O)C(=O)O)C(=O)N[C@@H](CC(N)=O)C(=O)N[C@@H]([C@@H](C)O)C(=O)N[C@@H](C)C(=O)N[C@@H]([C@@H](C)O)C(=O)N1)[C@@H](C)O)C(=O)N1CCC[C@H]1C(=O)N[C@@H](CO)C(=O)N[C@@H](CO)C(=O)N[C@H](C(=O)N[C@@H](CC(N)=O)C(=O)N[C@H](C(=O)NCC(=O)N1CCC[C@H]1C(=O)N[C@@H](CCCNC(=N)N)C(=O)N[C@H](C(=O)N[C@@H](Cc1ccc(O)cc1)C(N)=O)[C@@H](C)O)C(C)C)[C@@H](C)O
notes: also called compound 110
B5: N^ε1-[(4S)--4-carboxy-4-(19-carboxynonadecanoylamino)butanoyl]-[Glu14,Arg17,Pro21,Pro27,Pro37]-h-amylin (peptide)
peptide: K([γGlu-C20 diacid])CNTATCATQRLAEFLRHSSPNFGAIPSSTNVGSNTP-NH2
modifications: disulfide 2-7; N-terminus assumed
SMILES: CC[C@H](C)[C@H](NC(=O)[C@H](C)NC(=O)CNC(=O)[C@H](Cc1ccccc1)NC(=O)[C@H](CC(N)=O)NC(=O)[C@@H]1CCCN1C(=O)[C@H](CO)NC(=O)[C@H](CO)NC(=O)[C@H](Cc1c[nH]cn1)NC(=O)[C@H](CCCNC(=N)N)NC(=O)[C@H](CC(C)C)NC(=O)[C@H](Cc1ccccc1)NC(=O)[C@H](CCC(=O)O)NC(=O)[C@H](C)NC(=O)[C@H](CC(C)C)NC(=O)[C@H](CCCNC(=N)N)NC(=O)[C@H](CCC(N)=O)NC(=O)[C@@H](NC(=O)[C@H](C)NC(=O)[C@@H]1CSSC[C@H](NC(=O)[C@@H](N)CCCCNC(=O)CC[C@H](NC(=O)CCCCCCCCCCCCCCCCCCC(=O)O)C(=O)O)C(=O)N[C@@H](CC(N)=O)C(=O)N[C@@H]([C@@H](C)O)C(=O)N[C@@H](C)C(=O)N[C@@H]([C@@H](C)O)C(=O)N1)[C@@H](C)O)C(=O)N1CCC[C@H]1C(=O)N[C@@H](CO)C(=O)N[C@@H](CO)C(=O)N[C@H](C(=O)N[C@@H](CC(N)=O)C(=O)N[C@H](C(=O)NCC(=O)N[C@@H](CO)C(=O)N[C@@H](CC(N)=O)C(=O)N[C@H](C(=O)N1CCC[C@H]1C(N)=O)[C@@H](C)O)C(C)C)[C@@H](C)O
notes: also called compound 12
B6: N^ε1-[(4S)-4-carboxy-4-[[(4S)-4-carboxy-4-(19-carboxynonadecanoylamino)butanoyl]amino]butanoyl]-[Glu14,Arg17,Pro21,Pro27,Pro34,Glu35]-h-amylin (peptide)
peptide: K([γGlu-γGlu-C20 diacid])CNTATCATQRLAEFLRHSSPNFGAIPSSTNVGPETY-NH2
modifications: disulfide 2-7; N-terminus assumed
SMILES: CC[C@H](C)[C@H](NC(=O)[C@H](C)NC(=O)CNC(=O)[C@H](Cc1ccccc1)NC(=O)[C@H](CC(N)=O)NC(=O)[C@@H]1CCCN1C(=O)[C@H](CO)NC(=O)[C@H](CO)NC(=O)[C@H](Cc1c[nH]cn1)NC(=O)[C@H](CCCNC(=N)N)NC(=O)[C@H](CC(C)C)NC(=O)[C@H](Cc1ccccc1)NC(=O)[C@H](CCC(=O)O)NC(=O)[C@H](C)NC(=O)[C@H](CC(C)C)NC(=O)[C@H](CCCNC(=N)N)NC(=O)[C@H](CCC(N)=O)NC(=O)[C@@H](NC(=O)[C@H](C)NC(=O)[C@@H]1CSSC[C@H](NC(=O)[C@@H](N)CCCCNC(=O)CC[C@H](NC(=O)CC[C@H](NC(=O)CCCCCCCCCCCCCCCCCCC(=O)O)C(=O)O)C(=O)O)C(=O)N[C@@H](CC(N)=O)C(=O)N[C@@H]([C@@H](C)O)C(=O)N[C@@H](C)C(=O)N[C@@H]([C@@H](C)O)C(=O)N1)[C@@H](C)O)C(=O)N1CCC[C@H]1C(=O)N[C@@H](CO)C(=O)N[C@@H](CO)C(=O)N[C@H](C(=O)N[C@@H](CC(N)=O)C(=O)N[C@H](C(=O)NCC(=O)N1CCC[C@H]1C(=O)N[C@@H](CCC(=O)O)C(=O)N[C@H](C(=O)N[C@@H](Cc1ccc(O)cc1)C(N)=O)[C@@H](C)O)C(C)C)[C@@H](C)O
B7: N^ε1-[(4S)-4-carboxy-4-[[(4S)-4-carboxy-4-(19-carboxynonadecanoylamino)butanoyl]amino]butanoyl]-[Glu14,Arg17,Pro21,Pro31,Pro34,Glu35]-h-amylin (peptide)
peptide: K([γGlu-γGlu-C20 diacid])CNTATCATQRLAEFLRHSSPNFGAILSSTPVGPETY-NH2
modifications: disulfide 2-7 (inferred)
B8: N^ε1-[(4S)-4-carboxy-4-[[(4S)-4-carboxy-4-(19-carboxynonadecanoylamino)butanoyl]amino]butanoyl]-[Glu14,Arg17,Pro21,Pro27,Pro34,His35]-h-amylin (peptide)
peptide: K([γGlu-γGlu-C20 diacid])CNTATCATQRLAEFLRHSSPNFGAIPSSTNVGPHTY-NH2
modifications: disulfide 2-7 (inferred)

How the values were obtained:
[1] = biological target: T1, human amylin 3(a) receptor (human …); experiment: cell-based or functional assay
[2] = biological target: T2, human calcitonin receptor; experiment: cell-based or functional assay
[3] = biological target: T1, human amylin 3(a) receptor (human …); experiment: SPA competition binding, displacement of 125I-rat amylin from membranes of Amylin 3(a)/CRE-luc BHK cells (Assay V)
In short: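 Membranes from BHK Amylin 3(a)/CRE-luc cells (35 ng/μL final) were mixed with SPA beads and test compounds in 50 mM Hepes pH 7.4 with 1 mM CaCl2, 5 mM MgCl₂, 0.1% OA and 0.02% Tween20. Incubation ran 120 min at 25° C with shaking; IC₅₀ came from one-site competition fitting.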

Binder	Ratio hCT/hAmylin funct. [1]	hAmylin-R funct. EC50 [1] [nM]	hCTR funct. EC50 [2] [nM]	IC50 [3] [nM]
B1	3.8	0.285	1.09	0.633
B2	6.8	0.189	1.28	0.403
B3	2.2	0.213	0.47	0.264
B4	–	0.278	8.16	0.326
B5	1.8	0.101	0.185	0.142
B6	–	0.225	2.36	0.121
B7	5.8	0.222	1.28	0.069
B8	–	0.172	2.83	0.377
